Measured values taken from paper PMC4773810, “Novel small molecules targeting ciliary transport of Smoothened and oncogenic Hedgehog pathway activation” (Scientific Reports, 2016).

T1: human GPRASP2 (G protein-coupled receptor associated sorting protein 2), full length (human, UniProt Q96D09 1-838)
T1 construct: G protein-coupled receptor associated sorting protein 2 (GPRASP2), human, full length; also called hGPRASP2; full-length hGPRASP2; source: E. coli Rosetta2 (DE3), purified (IMAC, TEV protease, second IMAC, size exclusion chromatography)
T1 sequence (looked up): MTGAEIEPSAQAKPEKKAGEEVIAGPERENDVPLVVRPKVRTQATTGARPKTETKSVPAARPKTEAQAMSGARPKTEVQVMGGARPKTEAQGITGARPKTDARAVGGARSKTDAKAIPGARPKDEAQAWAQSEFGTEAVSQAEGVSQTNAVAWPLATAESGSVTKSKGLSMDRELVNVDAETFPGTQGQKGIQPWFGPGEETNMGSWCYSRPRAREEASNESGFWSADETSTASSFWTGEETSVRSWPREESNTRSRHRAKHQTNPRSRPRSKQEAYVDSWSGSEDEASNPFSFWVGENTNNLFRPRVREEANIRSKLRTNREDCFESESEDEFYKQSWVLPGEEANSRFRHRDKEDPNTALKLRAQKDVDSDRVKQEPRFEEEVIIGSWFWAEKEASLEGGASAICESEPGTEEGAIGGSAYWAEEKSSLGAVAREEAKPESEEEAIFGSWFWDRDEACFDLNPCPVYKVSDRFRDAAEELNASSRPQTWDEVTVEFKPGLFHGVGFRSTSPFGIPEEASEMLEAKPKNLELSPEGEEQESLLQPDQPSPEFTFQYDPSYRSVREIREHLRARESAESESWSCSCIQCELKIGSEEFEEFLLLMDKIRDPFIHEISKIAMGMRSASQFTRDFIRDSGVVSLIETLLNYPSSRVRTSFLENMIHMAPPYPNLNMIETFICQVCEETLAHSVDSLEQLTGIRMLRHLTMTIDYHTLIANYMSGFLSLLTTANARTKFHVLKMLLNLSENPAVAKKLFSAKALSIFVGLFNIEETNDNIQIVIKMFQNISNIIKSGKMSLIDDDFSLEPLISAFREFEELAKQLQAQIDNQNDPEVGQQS

B1: hSMO-WT (aa533-552) peptide (peptide, UniProt Q99835 533-552, looked up)
peptide: STWVWTKATLLIWRRTWCRL
notes: source: synthetic peptide (PSL GmbH)
B2: hSMO-WT (aa539-552) peptide (peptide, UniProt Q99835 539-552, looked up)
peptide: KATLLIWRRTWCRL
notes: as for B1
B3: hSMOM2 (aa533-552-W535L) peptide (peptide, UniProt Q99835 533-552, looked up)
peptide: STLVWTKATLLIWRRTWCRL
notes: also called hSMOM2 peptide; peptide from human SMOM2; source: synthetic peptide (PSL GmbH)

Biological target: T1, human GPRASP2 (G protein-coupled …)
Test: NMR titration; 1D 1H NMR (…) of 100 uM peptide before and after addition of hGPRASP2 to 0.78 uM; 600 MHz, 298 K; 50 mM sodium phosphate pH 8, 50 mM NaCl, 0.002% NaN3, 100 uM DTT, 90% H2O/10% D2O
Settings: both partners purified

| Binder | binding result |
| --- | --- |
| B1 | binds |
| B2 | binds |
| B3 | binds |
